Measurements published in US20140341937A1 (US Dept. of Health and Human Services, published 2014).

Legend:
[1] = target: T1, CCR4 (human, UniProt P51679 1-360); assay: cell-based or functional assay
T1 sequence (looked up): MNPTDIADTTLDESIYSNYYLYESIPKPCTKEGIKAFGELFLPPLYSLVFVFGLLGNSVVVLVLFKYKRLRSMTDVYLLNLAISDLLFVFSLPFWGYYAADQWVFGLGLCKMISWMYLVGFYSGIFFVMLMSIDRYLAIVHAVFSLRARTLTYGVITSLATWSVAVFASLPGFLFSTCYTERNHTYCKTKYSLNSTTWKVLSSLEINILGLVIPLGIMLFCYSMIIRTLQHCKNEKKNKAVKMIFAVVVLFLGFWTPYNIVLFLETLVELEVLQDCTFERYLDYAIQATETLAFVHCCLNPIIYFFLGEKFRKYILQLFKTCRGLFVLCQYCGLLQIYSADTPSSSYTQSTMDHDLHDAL

[2] = target: T2, CCR8 (human, UniProt P51685 1-355); assay: flow cytometry on HEK293/CCR8 cells, 30 min at 4° C., anti-EDN antibody detection
T2 construct: whole, on cells; also called human CCR8; HEK/CCR8
T2 sequence (P51685 whole entry): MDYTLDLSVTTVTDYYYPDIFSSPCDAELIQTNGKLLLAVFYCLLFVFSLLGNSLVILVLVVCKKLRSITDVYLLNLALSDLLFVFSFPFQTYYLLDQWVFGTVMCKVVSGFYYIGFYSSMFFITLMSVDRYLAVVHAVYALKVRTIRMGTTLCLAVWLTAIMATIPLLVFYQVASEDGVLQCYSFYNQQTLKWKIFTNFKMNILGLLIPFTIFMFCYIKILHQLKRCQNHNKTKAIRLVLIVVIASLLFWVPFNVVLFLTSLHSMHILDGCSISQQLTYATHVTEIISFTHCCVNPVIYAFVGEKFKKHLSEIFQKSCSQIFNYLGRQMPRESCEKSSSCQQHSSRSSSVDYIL

B1: TARC-PE38 (ligand)
chain: MARGTNVGRECCLEYFKGAIPLRKLKTWYQTSEDCSRDAIVFVTVQGRAICSDPNNKRVKNAVKYLQSLERSDGGGSGGGGSLEASGGPEGGSLAALTAHQACHLPLETFTRHRQPRGWEQLEQCGYPVQRLVALYLAARLSWNQVDQVIRNALASPGSGGDLGEAIREQPEQARLALTLAAAESERFVRQGTGNDEAGAANGPADSGDALLERNYPTGAEFLGDGGDVSFSTRGTQNWTVERLLQAHRQLEERGYVFVGYHGTFLEAAQSIVFGGVRARSQDLDAIWRGFYIAGDPALAYGYAQDQEPDARGRIRNGALLRVYVPRSSLPGFYRTSLTLAAPEAAGEVERLIGHPLPLRLDAITGPEEEGGRLETILGWPLAERTVVIPSAIPTDPRNVGGDLDPSSIPDKEQAISALPDYASQPGKPPREDLKRSAEEQKLISEEDLAHHHHHH
[1]
  killing of human T lymphoblastoid CCRF-CEM cells in vitro (IC50): 3 to 8 nM

B2: MC148-EDN (ligand)
chain: MALARRKCCLNPTNRPIPNPLLQDLSRVDYQAIGHDCGREAFRVTLQDGRQGCVSVGNKSLLDWLRGHKDLCPQIWSGCESLEFNDAQAPKSLEGGGGSKPPQFTWAQWFETQHINMTSQQCTNAMQVINNYQRRCKNQNTFLLTTFANVVNVCGNPNMTCPSNKTRKNCHHSGSQVPLIHCNLTTPSPQNISNCRYAQTPANMFYIVACDNRDQRRDPPQYPVVPVHLDRIIGSAEEQKLISEEDLAHHHHHH
notes: also called MC148-chemotoxin
[2]
  binding result: binds
